Results published in patent US20260069707A1, “COMBINATION THERAPY WITH ANTIBODY-DRUG CONJUGATES AND HYALURONIDASES” (HALOZYME, INC., priority 2024, published 2026).
Where “and” joins values, the source holds several entries; their conditions need not be identical. Equal values may be shown once.

Assay: Enhertu analytes (TAB, TADC, free payload) in skin tissue homogenates of injection site
Type: in vivo, Yucatan miniature pig (Sus scrofa domestica)
Details: SC; for Free Payload Result / TADC/TAB Ratio / Total Antibody Result: skin injection site homogenate, individual sites; for TADC/TAB ratio in tissue homogenates / Concentration of free payload in tissue homogenates of injection site / Concentration of total ADC (TADC) in tissue homogenates of injection site / Concentration of total antibody (TAB) in tissue homogenates of injection site / AUC(1-7), free payload in tissue homogenates of injection site / AUC(1-7), total ADC (TADC) in tissue homogenates of injection site / AUC(1-7), total antibody (TAB) in tissue homogenates of injection site / Cmax, free payload in tissue homogenates of injection site / Cmax, total ADC (TADC) in tissue homogenates of injection site / Cmax, total antibody (TAB) in tissue homogenates of injection site: skin
Experimental: Porcine serum was used as surrogate matrix to prepare calibration standards and quality controls for skin sample quantitation. Untreated blank porcine skin was provided for preparation of monitoring quality controls. The porcine skin was homogenized at an approximate ratio of 0.5 mL of buffer for every 100 mg of skin. […] The monitoring controls were analyzed during the method performance evaluation. The following were selected for monitoring in the assay (Table 83).
Porcine serum was used as surrogate matrix to prepare calibration standards and quality controls for the quantitation of skin samples. […] The porcine skin was homogenized at an approximate ratio of 0.5 mL of buffer for every 100 mg of skin. […] These were analyzed during the method performance evaluation.
This sample was divided vertically into two identical pieces. One skin sample was placed into a pre-weighed cryogenic tube and its weight was recorded then stored on dry ice prior to transfer to ≤−70° C. The other skin sample was processed for potential future histological assessment into OCT freezing media and frozen on dry ice.
Animals received two SC doses on their lower abdominal region.
Two cohorts were included in the follow-on study. […] Each animal had two full thickness skin biopsies taken post-mortem using a 12 mm punch. This sample was divided vertically into two identical pieces. One skin sample was placed into a pre-weighed cryogenic tube and its weight was recorded, then stored on dry ice prior to transfer to ≤−70° C. The other skin sample was processed into OCT molds for potential future histological assessment.
Tissue lysates were prepared based upon the weight of the sample at a ratio of 0.2 g/mL homogenization buffer (Tables 81 and 82). The total protein concentration of each homogenate was determined by BCA assay. The concentration of the total ADC (TADC), total antibody (TAB) and free payload (deruxtecan) in each sample was then normalized to the protein concentration and reported in μg analyte per mg total protein.
In this study, six animals were used. […] Two cohorts were included in this study. Cohort 1 was euthanized 24 hours after treatment, while Cohort 2 was euthanized 48 hours after exposure to the two test solutions.

[1] = 24 h post-injection, individual animal, listed as ADC
[2] = 48 h post-injection, individual animal, listed as ADC
[3] = 168 h post-injection, individual animal, listed as ADC
[4] = individual series, listed as ADC

Substance: Sacituzumab govitecan [Trodelvy]
- Cmax, total ADC in skin (mean): 24210 ng/mL
- Cmax, total antibody in skin (mean): 27650 ng/mL
- ADC/Ab ratio, mean AUC1-7 (minipig skin): 87%
- ADC/Ab ratio, mean Cmax (minipig skin): 88%
- ADC/Payload ratio, mean AUC1-7 (minipig skin): 147791%
- ADC/Payload ratio, mean Cmax (minipig skin): 128404%
- Free Payload Result (24 h, listed as ADC): 124000 pg/mL and 67800 pg/mL and 138000 pg/mL
- TADC/TAB Ratio (24 h, listed as ADC): 0.97 and 0.75 and 0.87
- Total Antibody Result (24 h, listed as ADC): 143 µg/mL and 97.8 µg/mL and 237 µg/mL
- Free Payload Result (48 h, listed as ADC): 21700 pg/mL and 29500 pg/mL and 33800 pg/mL
- TADC/TAB Ratio (48 h, listed as ADC): 0.77 and 0.86 and 0.96
- Total Antibody Result (48 h, listed as ADC): 50.2 µg/mL and 51.7 µg/mL and 58.1 µg/mL
- Free Payload Result (168 h, listed as ADC): 3320 pg/mL and 2240 pg/mL and 3520 pg/mL
- TADC/TAB Ratio (168 h, listed as ADC): 1.00 and 0.67 and 0.70
- Total Antibody Result (168 h, listed as ADC): 4.43 µg/mL and 4.86 µg/mL and 5.80 µg/mL
- TADC/TAB ratio in tissue homogenates (24 h post injection, individual animal, listed as ADC): 0.87 and 0.97 and 0.75
- TADC/TAB ratio in tissue homogenates (24 h post injection, mean): 1.14
- Concentration of free payload in tissue homogenates of injection site [1]: 0.026 μg/mg protein and 0.020 μg/mg protein and 0.011 μg/mg protein
- Concentration of total ADC (TADC) in tissue homogenates of injection site [1]: 38.48 μg/mg protein and 22.00 μg/mg protein and 12.15 μg/mg protein
- Concentration of total antibody (TAB) in tissue homogenates of injection site [1]: 44.05 μg/mg protein and 22.63 μg/mg protein and 16.28 μg/mg protein
- Concentration of free payload in tissue homogenates of injection site (24 h post-injection, mean): 0.02 μg/mg protein
- Concentration of total ADC (TADC) in tissue homogenates of injection site (24 h post-injection, mean): 24.21 μg/mg protein
- Concentration of total antibody (TAB) in tissue homogenates of injection site (24 h post-injection, mean): 27.65 μg/mg protein
- TADC/TAB ratio in tissue homogenates (48 h post injection, individual animal, listed as ADC): 0.78 and 0.86 and 0.96
- TADC/TAB ratio in tissue homogenates (48 h post injection, mean): 1.15
- Concentration of free payload in tissue homogenates of injection site [2]: 0.003 μg/mg protein and 0.005 μg/mg protein (2×)
- Concentration of total ADC (TADC) in tissue homogenates of injection site [2]: 5.97 μg/mg protein and 6.98 μg/mg protein and 7.80 μg/mg protein
- Concentration of total antibody (TAB) in tissue homogenates of injection site [2]: 7.70 μg/mg protein and 8.07 μg/mg protein and 8.14 μg/mg protein
- Concentration of free payload in tissue homogenates of injection site (48 h post-injection, mean): 0.00 μg/mg protein
- Concentration of total ADC (TADC) in tissue homogenates of injection site (48 h post-injection, mean): 6.92 μg/mg protein
- Concentration of total antibody (TAB) in tissue homogenates of injection site (48 h post-injection, mean): 7.97 μg/mg protein
- TADC/TAB ratio in tissue homogenates (168 h post injection, individual animal, listed as ADC): 1.01 and 0.67 and 0.70
- TADC/TAB ratio in tissue homogenates (168 h post injection, mean): 1.27
- Concentration of free payload in tissue homogenates of injection site [3]: 0.001 μg/mg protein and 0.000 μg/mg protein (2×)
- Concentration of total ADC (TADC) in tissue homogenates of injection site [3]: 0.69 μg/mg protein and 0.48 μg/mg protein and 0.55 μg/mg protein
- Concentration of total antibody (TAB) in tissue homogenates of injection site [3]: 0.68 μg/mg protein and 0.72 μg/mg protein and 0.79 μg/mg protein
- Concentration of free payload in tissue homogenates of injection site (168 h post-injection, mean): 0.00 μg/mg protein
- Concentration of total ADC (TADC) in tissue homogenates of injection site (168 h post-injection, mean): 0.57 μg/mg protein
- Concentration of total antibody (TAB) in tissue homogenates of injection site (168 h post-injection, mean): 0.73 μg/mg protein
- AUC(1-7), free payload in tissue homogenates of injection site [4]: 0.024 ug*day/mL (2×) and 0.021 ug*day/mL
- AUC(1-7), total ADC (TADC) in tissue homogenates of injection site [4]: 38.87 µg·days/mL and 33.14 µg·days/mL and 30.85 µg·days/mL
- AUC(1-7), total antibody (TAB) in tissue homogenates of injection site [4]: 46.85 µg·days/mL and 37.33 µg·days/mL and 34.52 µg·days/mL
- Cmax, free payload in tissue homogenates of injection site [4]: 26 ng/mL and 20 ng/mL and 11 ng/mL
- Cmax, total ADC (TADC) in tissue homogenates of injection site [4]: 38480 ng/mL and 22000 ng/mL and 12150 ng/mL
- Cmax, total antibody (TAB) in tissue homogenates of injection site [4]: 44050 ng/mL and 22630 ng/mL and 16280 ng/mL
- AUC(1-7), free payload in tissue homogenates of injection site (mean): 0.02 µg·days/mL
- AUC(1-7), total ADC (TADC) in tissue homogenates of injection site (mean): 34.29 µg·days/mL
- AUC(1-7), total antibody (TAB) in tissue homogenates of injection site (mean): 39.57 µg·days/mL
- Cmax, free payload in tissue homogenates of injection site (mean): 20 ng/mL
- Cmax, total ADC (TADC) in tissue homogenates of injection site (mean): 24210 ng/mL
- Cmax, total antibody (TAB) in tissue homogenates of injection site (mean): 27650 ng/mL
